Changes are numbered by the printed parent chain.
T1: His-tagged cynomolgus monkey Siglec15 protein (cynomolgus monkey, UniProt A0A2K5UY47 20-262)
T1 construct: not shown: His tag
T1 sequence: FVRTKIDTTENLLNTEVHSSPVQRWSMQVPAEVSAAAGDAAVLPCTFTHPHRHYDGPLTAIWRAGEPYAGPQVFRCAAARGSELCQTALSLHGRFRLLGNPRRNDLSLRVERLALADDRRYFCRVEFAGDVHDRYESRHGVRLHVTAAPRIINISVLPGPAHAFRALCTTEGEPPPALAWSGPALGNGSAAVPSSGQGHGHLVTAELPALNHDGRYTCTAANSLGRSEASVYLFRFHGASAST

T2: Siglec15-ECD-His (human, UniProt Q6ZMC9 20-263)
T2 construct: Human Siglec15 (Uniprot Q6ZMC9) extracellular domain with 7 His, expressed in Hek293F; also called Sigle15-ECD-His protein; Siglec15-His protein
T2 sequence: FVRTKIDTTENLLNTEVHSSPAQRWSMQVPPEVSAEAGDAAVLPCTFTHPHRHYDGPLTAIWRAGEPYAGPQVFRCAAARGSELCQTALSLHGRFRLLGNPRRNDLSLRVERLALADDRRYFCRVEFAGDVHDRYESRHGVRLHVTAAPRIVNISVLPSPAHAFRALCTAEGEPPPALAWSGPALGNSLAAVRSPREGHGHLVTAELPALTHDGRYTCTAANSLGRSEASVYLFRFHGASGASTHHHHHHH

B1: 14A7 monoclonal antibody (antibody, V domains shown)
VH: DVQLQESGPGLVKPSQSLSLTCTVTGYSITSDFAWNWIRQFPGNKLEWMGYIRFSGSTTYKPTLKSRISITRDTSKNQFFLQLNSVTTEDSATYYCAREDYDGLFDYWGQGTTLTVTS
VL: DVLMTQTPLSLPVSLGDHASISCRSSQTILHSNGNTYLDWYLQKPGQSPKLLIYKVSNRFSGVPDRFSGSGSGTDFTLKISRVEAEDLGVYYCFQGSHVPYTFGGGTKLEIK
B2: 1-10E5 monoclonal antibody (antibody, V domains shown)
VH: DVKLVESGGGLVKPGGSLKLSCVVSGLTFSRYTMSWVRQTPEKRLEWVATISSGGNSTYYPDSVKGRFTISRDDAKDTLYLQMSSLKSEDTAMYYCTNYGYFFDYWGQGTTLTVSS
VL: DIQMTQSPASLSASVGETVTITCRASENIYSFLAWYQQKQGKSPQLLVYNAKTLAEGVPSRFSGSGSGTQFSLKINSLQPEDFGSYYCQHHYDRPLTFGAGTKLELK
B3: 1-7F4 monoclonal antibody (antibody, V domains shown)
VH: EVQLQQSGPELVKPGASVKMSCKASGYTFTTYVMHWVKQKPGQGLEWIGYINPYNDKTKYNEKFKGKATLTSDKSSSTAYMEVSRLTSEDSAVYYCGSGYDAMDYWGQGTSVTVSS
VL: DIQMTQSPASLSVSVGETVTITCRASENIYSHLAWYQQKQGKSPQLLIYSATNLADGVPSRFNGSGSGTQYSLKINSLQSEDFGSYYCQHFWGTPWTFGGGTKLEIK
B4: 1-15D1 monoclonal antibody (antibody, V domains shown)
VH: B3 VH with K57N, V83L, R85S
VL: B3 VL with T5A, A25T, I48V
B5: 1-7F4-IgG1 human-mouse chimeric anti-Siglec15 antibody (antibody, V domains shown)
VH: B3 VH
VL: B3 VL
B6: 1-15D1-IgG1 human-mouse chimeric anti-Siglec15 antibody (antibody, V domains shown)
VH: B3 VH with K57N, V83L, R85S
VL: B3 VL with T5A, A25T, I48V
B7: 1-10E5-IgG1 human-mouse chimeric anti-Siglec15 antibody (antibody, V domains shown)
VH: B2 VH
VL: B2 VL
B8: 5G12-IgG1 control antibody (antibody, V domains shown)
VH: QVQLQQPGAELVKPGASVKMSCKASGYTFTSYWITWVIQRPGQGLEWIGDIYCGSDTMHYNEKFKNKATLTVDTSSSTAYMQLSSLTSEDSAVYYCARWWDYGSSYDYFDYWGQGTTLTVSS
VL: DIKMTQSPSSMYASLGERVTITCKASQDINSYLSWFQQKPGKSPKTLIYRANRLVDGVPSRFSGSGSGQDYSLTISSLEYEDMGIYYCLQYDEFPYTFGGGTKLEIKR

Each binder was assayed against His-tagged mouse Siglec15 protein (mouse) (assay: ELISA, His-tagged mouse Siglec15 coated).
Description: (§1) In order to evaluate the cross-species recognition properties of antibodies, the cross recognition of purified 1-15D1, 1-7F4, 14A7 and 1-10E5 monoclonal antibodies with human, cynomolgus monkey and mouse Siglec15 was tested. ELISA test was carried out by coating the microtiter plate with His-tagged human, cynomolgus monkey and mouse Siglec15 proteins and adding 1-15D1, 1-7F4, 14A7 and 1-10E5 antibodies at concentrations of 5000 ng/ml, 1666.7 ng/ml, 555.6 ng/ml, 185.2 ng/ml, 61.7 ng/ml, 20.6 ng/ml, 6.9 ng/ml, 2.3 ng/ml, 0.8 ng/ml, 0.25 ng/ml and 0.1 ng/ml respectively. […] The 14A7 and 1-10E5 antibodies could not only bind human and monkey Siglec15 proteins, but also bind mouse Siglec 15 proteins (FIG. 5). See Table 1 and FIG. 3-FIG. 5 for the EC₅₀ values of affinities for various Siglec15.

EC50	Binder
9.99 ng/mL	B1
9.61 ng/mL	B2

The binders below were run against T1, His-tagged cynomolgus monkey Siglec15 … (assay: ELISA, His-tagged cynomolgus monkey Siglec15 coated).
Description: as §1

EC50	Binder
14.8 ng/mL	B3
9.07 ng/mL	B4
8.51 ng/mL	B1
9.49 ng/mL	B2

Each binder was assayed against T2, Siglec15-ECD-His (assay: ELISA, His-tagged human Siglec15 coated).
Description: as §1

EC50	Binder
10 ng/mL	B3
4.98 ng/mL	B4
8.97 ng/mL	B1
7.21 ng/mL	B2

These binders were tested against T2, Siglec15-ECD-His (assay: BLI (ForteBio), Siglec15-ECD-His on HIS1K sensor, antibody as analyte).
Description: In this experiment, a HIS1K biosensor was used to bind the ligand (Sigle15-ECD-His protein) followed by the analyte. Human Sigle15-ECD-His protein was diluted to 5 μg/ml and immobilized on the biosensor to a binding response threshold of 0.3 nm. After the 120s baseline step, the sensors were respectively immersed in the analytes of anti-Siglec15 antibodies 1-7F4-IgG1, 1-15D1-IgG1 and 1-10E5-IgG1 diluted in 2-fold gradient dilution with 0.02% PBST buffer, and the initial antibody concentration was 100 nM, 7 concentration gradients were set respectively. Human IgG1 (hIgG1) (B109801, Baiying Biotechnology Co., Ltd.) was used as a reference control, and 5G12-IgG1 was used as a positive control to conduct an affinity analysis experiment. The binding time of ligand and analyte was 120s, and the dissociation time was 300s. The raw data were imported into the analysis software, the zero concentration control was subtracted, and the reference channel was subtracted to eliminate the volume effect. The affinity data of the antigen and antibody were calculated by the analysis software regression according to the binding curve.

Kd	koff	kon	Binder
0.06 nM	3.42e-05 s⁻¹	570000 M⁻¹ s⁻¹	B5
< 0.001 nM	< 1e-07 s⁻¹	436000 M⁻¹ s⁻¹	B6
< 0.001 nM	< 1e-07 s⁻¹	1.04e+06 M⁻¹ s⁻¹	B7
0.261 nM	0.000178 s⁻¹	683000 M⁻¹ s⁻¹	B8

The binders below were run against T3, Siglec15-ECD-Fc (human) (assay: flow cytometry, single-point blocking by hybridoma supernatant of Siglec15-ECD-Fc (2 ug/ml) binding to LRRC4C-Hek293 cells).
T3 construct: Human Siglec15 extracellular domain fused to human IgG1 Fc, expressed in Hek293F; also called Siglec15-ECD-Fc fusion protein
Source text: When the hybridoma cells grew to a certain amount, the Siglec15-His protein was coated onto a 96-well microtiter plate, and the mouse anti-Siglec15 serum was used as a positive control, and the hybridoma supernatant was screened by ELISA to select positive clones. […] The experimental results were shown in FIG. 2, and the specific method was as follows. The inventors conducted subclonal screening of these 10 strains of cells by the limiting dilution method, and finally kept the obtained monoclonal positive cell strains separately, and the supernatant of hybridoma cells was collected for purification by ProteinG.
By using the Lipofectamine system, the human LRRC4C (amino acid sequence set forth in SEQ ID NO: 5) plasmid was transfected into Hek293 cells. After 48 hours, G418 (800 μg/mL) was added to screen for 10-14 days to obtain a cell line stably expressing LRRC4C. Cells were collected, washed once with PBS buffer, blocked with PBS containing 2% FBS for 1 h at room temperature. The hybridoma cell supernatant was added in 50 μl/well; then the diluted Siglec 15-ECD-Fc protein (2 ug/ml) was added in 50 μl/well; mouse IgG was used as a negative control. The cells were incubated at 4° C. for 50 min, then washed three times with PBS buffer containing 0.2% FBS, then diluted with Alexa Fluor 488-labeled goat anti-human IgG in PBS containing 2% FBS, and incubated at 4° C. in the dark for 50 min, and washed three times with PBS buffer containing 0.2% FBS; finally, the cells were resuspended in 200 μL PBS and analyzed by flow cytometry. The average fluorescence reading of 10,000 cells for each sample was recorded, wherein the FITC fluorescence intensity was taken as the abscissa and the cell number as the ordinate, and the voltage parameters were adjusted so that the blank control was at the origin of the coordinate axis. The percentage result of hybridoma cell supernatant for blocking the binding of Siglec15-ECD-Fc protein to LRRC4C was calculated.

binding result	Binder
binds	B3
binds	B4
binds	B1
binds	B2

From patent publication US20250326838A1 (CSPC MEGALITH BIOPHARMACEUTICAL, published 2025)
